Measurements from patent publication US20120107330A1 (published 2012).

Experiments:
[1] = molecular target: T1, human TNFR1 on MRC-5 cells (human, UniProt P19438 30-455); experiment: cell-based or functional assay
T1 sequence (looked up): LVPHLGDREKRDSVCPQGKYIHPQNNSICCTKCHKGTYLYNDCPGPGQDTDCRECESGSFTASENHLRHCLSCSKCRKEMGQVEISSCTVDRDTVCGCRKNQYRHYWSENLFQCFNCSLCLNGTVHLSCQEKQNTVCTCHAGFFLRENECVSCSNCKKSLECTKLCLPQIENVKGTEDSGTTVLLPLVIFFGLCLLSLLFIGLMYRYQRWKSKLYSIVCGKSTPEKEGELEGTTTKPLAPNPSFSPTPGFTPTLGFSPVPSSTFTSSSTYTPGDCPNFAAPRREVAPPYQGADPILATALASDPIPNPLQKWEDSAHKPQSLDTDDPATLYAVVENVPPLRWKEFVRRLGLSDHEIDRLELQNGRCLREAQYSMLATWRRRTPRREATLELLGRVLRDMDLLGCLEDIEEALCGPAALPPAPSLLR

[2] = molecular target: T2, human TNFR1 (recombinant, R&D Systems cat no. 636-R1/CF, biotinylated) (human, UniProt P19438 30-211, limits assumed, biotinylated with EZ-Link NHS-LC-LC-biotin); experiment: BIAcore T100, biotinylated human TNFR1 on chip
T2 construct: it is not tied to the BIAcore reagent; also called p55; hTNFR1
T2 sequence (looked up): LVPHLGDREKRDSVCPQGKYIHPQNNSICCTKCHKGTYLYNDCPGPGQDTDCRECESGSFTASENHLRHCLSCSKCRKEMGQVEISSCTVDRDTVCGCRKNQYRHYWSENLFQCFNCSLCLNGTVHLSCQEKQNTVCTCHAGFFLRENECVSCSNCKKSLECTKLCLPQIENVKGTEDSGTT
Experimental: Furthermore, the affinity and potency of the purified fusion molecules were determined using a BIAcore T100 and the MRC5 cell assay, respectively. The BIAcore T100 is a highly sensitive BIAcore version ideally suited for determination of high affinity binders (Papalia et al., Anal Biochem. 359, p 112 (2006)). Biotinylated, human TNFR1 was coated on the chip and each of the twelve AlbudAb fusions were passed over this surface at four different concentrations (2, 10, 50 and 250 nM). […] This improvement is observed regardless of the AlbudAb used for pairing and largest for the pairings with DOM7h-14-18. A second experiment used to establish if the different pairings affected the functional activity of the anti-TNFR1 dAb was the MRC5 cell assay (Table 8). A more marked difference between the pairings is observed in the MRC5 assay, in which the best potencies are observed in pairings with DOM7h-11-3 and DOM7h-11-12 while pairings with DOM7h-14-10 (DMS0117) lead to significant decreases in potency.

[3] = molecular target: T2, human TNFR1 (recombinant, R&D Systems …); experiment: BIAcore, human TNFR1
[4] = molecular target: T1, human TNFR1 on MRC-5 cells; experiment: cell-based or functional assay; remark: listed apart in the source

B1: DMS0115 (bispecific antibody)
chain: EVQLLESGGGLVQPGGSLRLSCAASGFTFVKYSMGWVRQAPGKGLEWVSQISNTADRTYYAHSVKGRFTISRDNSKNTLYLQMNSLRAEDTAVYYCAIYTGRWVPFEYWGQGTLVTVSSASTSGPSDIQMTQSPSSLSASVGDRVTITCRASRPIGTTLSWYQQKPGKAPKLLILWNSRLQSGVPSRFSGSGSGTDFTLTISSLQPEDFATYYCAQAGTHPTTFGQGTKVEIKR
notes: anti-TNFR1 dAb / AlbudAb in-line fusion
[1]
  MRC5 (ND50 in nM): 1.7 nM
[2]
  Kd: 0.16 nM
  koff: 5.8e-05 s⁻¹
  kon: 360000 M⁻¹ s⁻¹

B2: DMS0116 (bispecific antibody)
chain: EVQLLESGGGLVQPGGSLRLSCAASGFTFVKYSMGWVRQAPGKGLEWVSQISNTADRTYYAHSVKGRFTISRDNSKNTLYLQMNSLRAEDTAVYYCAIYTGRWVPFEYWGQGTLVTVSSASTSGPSDIQMTQSPSSLSASVGDRVTITCRASRPIGTMLSWYQQKPGKAPKLLILFGSRLQSGVPSRFSGSGSGTDFTLTISSLQPEDFATYYCAQAGTHPTTFGQGTKVEIKR
notes: as for B1
[1]
  MRC5 (ND50 in nM): 1.7 nM
[2]
  Kd: 0.14 nM
  koff: 5.4e-05 s⁻¹
  kon: 370000 M⁻¹ s⁻¹

B3: DMS0118 (bispecific antibody)
chain: EVQLLESGGGLVQPGGSLRLSCAASGFTFVKYSMGWVRQAPGKGLEWVSQISNTADRTYYAHSVKGRFTISRDNSKNTLYLQMNSLRAEDTAVYYCAIYTGRWVPFEYWGQGTLVTVSSASTSGPSDIQMTQSPSSLSASVGDRVTITCRASQWIGSQLSWYQQKPGKAPKLLIMWRSSLQSGVPSRFSGSGSGTDFTLTISSLQPEDFATYYCAQGLMKPMTFGQGTKVEIKR
notes: as for B1
[1]
  MRC5 (ND50 in nM): 1.4 nM
[2]
  Kd: 0.076 nM
  fold higher affinity than the other pairings: 3 fold
  koff: 4.9e-05 s⁻¹
  kon: 640000 M⁻¹ s⁻¹

B4: DMS0123 (bispecific antibody)
chain: EVQLLESGGGLVQPGGSLRLSCAASGFTFVKYSMGWVRQAPGKGLEWVSQISNTADRTYYAHSVKGRFTISRDNSKNTLYLQMNSLRAEDTAVYYCAIYTGRWVPFEYWGQGTLVTVSSASGGGGSGGGGSGGGGSDIQMTQSPSSLSASVGDRVTITCRASQWIGSQLSWYQQKPGKAPKLLIMWRSSLQSGVPSRFSGSGSGTDFTLTISSLQPEDFATYYCAQGLRHPKTFGQGTKVEIKR
[1]
  MRC5 (ND50 in nM): 5 nM

B5: DMS0121 (bispecific antibody)
chain: EVQLLESGGGLVQPGGSLRLSCAASGFTFVKYSMGWVRQAPGKGLEWVSQISNTADRTYYAHSVKGRFTISRDNSKNTLYLQMNSLRAEDTAVYYCAIYTGRWVPFEYWGQGTLVTVSSASGGGGSGGGGSGGGGSDIQMTQSPSSLSASVGDRVTITCRASRPIGTTLSWYQQKPGKAPKLLILWNSRLQSGVPSRFSGSGSGTDFTLTISSLQPEDFATYYCAQAGTHPTTFGQGTKVEIKR
notes: as for B1
[1]
  MRC5 (ND50 in nM): 1.8 nM
[2]
  Kd: 0.2 nM
  koff: 6e-05 s⁻¹
  kon: 300000 M⁻¹ s⁻¹

B6: DMS0122 (bispecific antibody)
chain: EVQLLESGGGLVQPGGSLRLSCAASGFTFVKYSMGWVRQAPGKGLEWVSQISNTADRTYYAHSVKGRFTISRDNSKNTLYLQMNSLRAEDTAVYYCAIYTGRWVPFEYWGQGTLVTVSSASGGGGSGGGGSGGGGSDIQMTQSPSSLSASVGDRVTITCRASRPIGTMLSWYQQKPGKAPKLLILFGSRLQSGVPSRFSGSGSGTDFTLTISSLQPEDFATYYCAQAGTHPTTFGQGTKVEIKR
[1]
  MRC5 (ND50 in nM): 1.5 nM

B7: DMS0124 (bispecific antibody)
chain: EVQLLESGGGLVQPGGSLRLSCAASGFTFVKYSMGWVRQAPGKGLEWVSQISNTADRTYYAHSVKGRFTISRDNSKNTLYLQMNSLRAEDTAVYYCAIYTGRWVPFEYWGQGTLVTVSSASGGGGSGGGGSGGGGSDIQMTQSPSSLSASVGDRVTITCRASQWIGSQLSWYQQKPGKAPKLLIMWRSSLQSGVPSRFSGSGSGTDFTLTISSLQPEDFATYYCAQGLMKPMTFGQGTKVEIKR
notes: as for B1
[1]
  MRC5 (ND50 in nM): 1.9 nM
[2]
  Kd: 0.077 nM
  fold higher affinity than the other pairings: 3 fold
  koff: 3.5e-05 s⁻¹
  kon: 450000 M⁻¹ s⁻¹

B8: DMS0111 (bispecific antibody)
chain: EVQLLESGGGLVQPGGSLRLSCAASGFTFVKYSMGWVRQAPGKGLEWVSQISNTADRTYYAHSVKGRFTISRDNSKNTLYLQMNSLRAEDTAVYYCAIYTGRWVPFEYWGQGTLVTVSSASTDIQMTQSPSSLSASVGDRVTITCRASRPIGTTLSWYQQKPGKAPKLLILWNSRLQSGVPSRFSGSGSGTDFTLTISSLQPEDFATYYCAQAGTHPTTFGQGTKVEIKR
notes: as for B1
[1]
  MRC5 (ND50 in nM): 1.6 nM
[2]
  Kd: 0.17 nM
  koff: 6.2e-05 s⁻¹
  kon: 370000 M⁻¹ s⁻¹

B9: DMS0112 (bispecific antibody)
chain: EVQLLESGGGLVQPGGSLRLSCAASGFTFVKYSMGWVRQAPGKGLEWVSQISNTADRTYYAHSVKGRFTISRDNSKNTLYLQMNSLRAEDTAVYYCAIYTGRWVPFEYWGQGTLVTVSSASTDIQMTQSPSSLSASVGDRVTITCRASRPIGTMLSWYQQKPGKAPKLLILFGSRLQSGVPSRFSGSGSGTDFTLTISSLQPEDFATYYCAQAGTHPTTFGQGTKVEIKR
notes: as for B1
[1]
  MRC5 (ND50 in nM): 1.3 nM
[2]
  Kd: 0.14 nM
  koff: 5.5e-05 s⁻¹
  kon: 400000 M⁻¹ s⁻¹

B10: DOM1h-574-15 (other)
VH: EVQLLESGGGLVQPGGSLRLSCAASGFTFVKYSMGWVRQAPGKGLEWVSQISNTGDHTYYADSVKGRFTISRDNSKNTLYLQMNSLRAEDTAVYYCAIYTGRWEPFDYWGQGTLVTVSS
notes: VH dAb
[3]
  Kd: 20 nM
[4]
  MRC-5 ND50 (TNFα-mediated IL-8 release): 300 nM

B11: DOM1h-574-19 (other)
VH: EVQLLESGGGLVQPGGSLRLSCAASGFTFGKYSMGWVRQAPGKDLEWVSQISNTGDHTYYADSVKGRFTISRDNSKNTLYLQMNSLRAEDTAVYYCAIYTGRWEPFDYWGQGTLVTVSS
[4]
  MRC-5 ND50 (TNFα-mediated IL-8 release): 140 nM

B12: DOM1h-574-8 (other)
VH: EVQLLESGGGLVQPGGSLRLSCAASGFTFVKYSMGWVRQAPGKGPEWVSQISNTGGHTYYADSVKGRFTISRDNSKNTLYLQMNSLRAEDTAVYYCAIYTGRWEPFDYWGQGTLVTVSS
notes: VH dAb
[3]
  Kd: 5.7 nM
[4]
  MRC-5 ND50 (TNFα-mediated IL-8 release): 10 nM

B13: DOM1h-574 (other)
VH: EVQLLESGGGLVQPGGSLRLSCAASGFTFVKYSMGWVRQAPGKGLEWVSQISNTGGHTYYADSVKGRFTISRDNSKNTLYLQMNSLRAEDTAVYYCAKYTGHWEPFDYWGQGTLVTVSS
notes: VH dAb; also called parental dAb
[3]
  Kd: 210 nM
[4]
  MRC-5 ND50 (TNFα-mediated IL-8 release): 2200 nM

B14: DOM1h-574-11 (other)
VH: EVQLLESGGGLVQPGGSLRLSCAASGFTFVKYSMGWVRQAPGKGLEWVSQISNTGGHTYYADSVKGRFTISRDNSKNTLYLQMNSLRAEDTAVYYCAKYTGRWEPFDHWGQGTLVTVSS
notes: VH dAb
[3]
  Kd: 200 nM
[4]
  MRC-5 ND50 (TNFα-mediated IL-8 release): 800 nM

B15: DOM1h-574-10 (other)
VH: EVQLLESGGGLVQPGGSLRLSCAASGFTFGKYSMGWVRQAPGKDLEWVSQISNTGGHTYYADSVKGRFTISRDNSKNTLYLQMNSLRAEDTAVYYCAIYTGRWEPFDYWGQGTLVTVSS
notes: VH dAb
[3]
  Kd: 19 nM
[4]
  MRC-5 ND50 (TNFα-mediated IL-8 release): 100 nM

B16: DOM1h-574-7 (other)
VH: EVQLLESGGGLVQPGGSLRLSCAASGFTFVKYSMGWVRQAPGKGLEWVSQISNTGGHTYYADSVKGRFTISRDNSKNTLYLQMNSLRAEDTAVYYCAIYTGRWEPFDYWGQGTLVTVSS
notes: VH dAb
[3]
  Kd: 48 nM
[4]
  MRC-5 ND50 (TNFα-mediated IL-8 release): 580 nM

B17: DMS0114 (bispecific antibody)
chain: EVQLLESGGGLVQPGGSLRLSCAASGFTFVKYSMGWVRQAPGKGLEWVSQISNTADRTYYAHSVKGRFTISRDNSKNTLYLQMNSLRAEDTAVYYCAIYTGRWVPFEYWGQGTLVTVSSASTDIQMTQSPSSLSASVGDRVTITCRASQWIGSQLSWYQQKPGKAPKLLIMWRSSLQSGVPSRFSGSGSGTDFTLTISSLQPEDFATYYCAQGLMKPMTFGQGTKVEIKR
[1]
  MRC5 (ND50 in nM): 3.7 nM

B18: DMS0117 (bispecific antibody)
chain: EVQLLESGGGLVQPGGSLRLSCAASGFTFVKYSMGWVRQAPGKGLEWVSQISNTADRTYYAHSVKGRFTISRDNSKNTLYLQMNSLRAEDTAVYYCAIYTGRWVPFEYWGQGTLVTVSSASTSGPSDIQMTQSPSSLSASVGDRVTITCRASQWIGSQLSWYQQKPGKAPKLLIMWRSSLQSGVPSRFSGSGSGTDFTLTISSLQPEDFATYYCAQGLRHPKTFGQGTKVEIKR
[1]
  MRC5 (ND50 in nM): 25.9 nM
